# Columns and labels:
# [1] = biological target: biotinylated murine PD-L1 (murine) (UniProt Q9EP73); experiment: blocking ELISA; murine PD-L1 binding to murine PD-1 (the blocked partner) in the presence of the IgG
# [2] = biological target: T1, human PD-L1 expressed on cells (human, UniProt Q9NZQ7 19-290); experiment: flow cytometry blocking assay; antibody mixed with human PD-1-PE (the blocked partner) and added to HEK293 cells transfected with human PD-L1
# T1 construct: whole, on cells; also called PD-L1 transfected HEK 293 cells; HEK293-6E cells transfected with human PD-L1
# Text: Cells were washed 3 times with PBS and all data were collected on a BD FACSCanto II (BD Bioscience) and analysed on BD FACSDiva software (BD Bioscience).
# [3] = biological target: T2, biotinylated human PD-L1 (human, UniProt Q9NZQ7 19-239, limits assumed, biotinylated); experiment: avidity ELISA; biotinylated human PD-L1 (0.2 ug/mL) captured on a neutravidin plate, IgG titrated, anti-human Fc-HRP/TMB
# T2 construct: construct not described
# Method: Neutravidin was coated onto maxisorp plates at 2 μg/mL in coating buffer and incubated overnight at 4° C. The next day, plates were washed with wash buffer (PBS+0.05% Tween-20), and blocker with casein for 1 hour, at room temperature. Plates were then washed again using wash buffer. […] Plates were then washed again using wash buffer. The different antibodies were then added at various concentrations, and incubated for 1 hour at room temperature. Plates were then washed again using wash buffer. Anti-human Fc-HRP was then added and incubated for 1 hour at room temperature. Plates were then washed again using wash buffer. Finally, TMB was added to develop the ELISA; TMB conversion by HRP was stopped using 1M H—Cl.
# [4] = biological target: T2, biotinylated human PD-L1; experiment: ELISA; antibody coated on the plate at 2 ug/mL, biotinylated human PD-L1 titrated (x axis: Human PD-L1, nM), streptavidin-HRP/TMB
# Method: Binding was measured by ELISA. Antibodies were coated onto maxisorp plates at 2 μg/mL in coating buffer and incubated overnight at 4° C. The next day, plates were washed with wash buffer (PBS+0.05% Tween-20), and blocker with casein for 1 hour, at room temperature. Plates were then washed again using wash buffer. […] Plates were then washed again using wash buffer. […] Plates were then washed again using wash buffer. Finally, TMB was added to develop the ELISA; TMB conversion by HRP was stopped using 1M H—Cl.
# [5] = biological target: T2, biotinylated human PD-L1; experiment: blocking ELISA; biotinylated human PD-L1 pre-incubated with the Fab, then added to plate-coated human PD-1-Fc (the blocked partner); streptavidin-HRP/TMB
# T2 sequence (Q9NZQ7 19-239 limits assumed): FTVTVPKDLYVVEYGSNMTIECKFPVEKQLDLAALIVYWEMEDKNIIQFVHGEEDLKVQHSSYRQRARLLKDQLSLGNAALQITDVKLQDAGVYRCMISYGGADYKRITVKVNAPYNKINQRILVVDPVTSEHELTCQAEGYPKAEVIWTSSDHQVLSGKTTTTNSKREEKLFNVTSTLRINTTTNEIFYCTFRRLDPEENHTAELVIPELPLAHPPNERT
# T1 sequence (Q9NZQ7 19-290): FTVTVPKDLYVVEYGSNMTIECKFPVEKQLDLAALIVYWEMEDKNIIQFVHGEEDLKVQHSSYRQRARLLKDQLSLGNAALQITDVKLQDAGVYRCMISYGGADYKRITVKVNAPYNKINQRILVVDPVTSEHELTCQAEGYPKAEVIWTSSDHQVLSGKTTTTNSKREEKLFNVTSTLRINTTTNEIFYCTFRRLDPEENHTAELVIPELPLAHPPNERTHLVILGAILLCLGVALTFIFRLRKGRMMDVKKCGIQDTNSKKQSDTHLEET
# biotinylated murine PD-L1 (murine), sequence (Q9EP73 19-238 limits assumed): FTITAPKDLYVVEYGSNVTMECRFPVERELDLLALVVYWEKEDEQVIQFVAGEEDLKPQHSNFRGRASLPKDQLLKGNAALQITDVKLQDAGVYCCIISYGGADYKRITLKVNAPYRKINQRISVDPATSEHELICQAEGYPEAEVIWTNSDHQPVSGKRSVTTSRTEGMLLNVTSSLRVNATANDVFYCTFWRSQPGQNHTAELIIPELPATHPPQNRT
molecule,measurement,setting,value
commercially available anti-murine PD-L1 IgG antibody 10F.9G2 (BioLegend),IC50 (read off the curve),[1],10 nM
"anti-PD-L1 antibody H12, IgG1 format (antibody, V domains shown, IgG1) VH: EVQLVQSGAEVKKPGASVKVSCKASGGTFSSYAISWVRQAPGQGLEWMGRIIPILGIANYAQKFQGRVTITADKSTSTAYMELSSLRSEDTAVYYCARSGHGYSYGAFDYWGQGTL VL: QSVLTQPPSVSGAPGQRVTISCTGSSSNIGAGYDVHWYQQLPGTAPKLLIYGNSNRPSGVPDRFSGSKSGTSASLAITGLQAEDEADYYCQSYDSSLSGSYVVFGGGTKLTVL",IC50 (read off the curve),[2],~9 nM
"anti-PD-L1 antibody H12, IgG4 format (antibody, V domains shown, IgG4) VH: EVQLVQSGAEVKKPGASVKVSCKASGGTFSSYAISWVRQAPGQGLEWMGRIIPILGIANYAQKFQGRVTITADKSTSTAYMELSSLRSEDTAVYYCARSGHGYSYGAFDYWGQGTL VL: QSVLTQPPSVSGAPGQRVTISCTGSSSNIGAGYDVHWYQQLPGTAPKLLIYGNSNRPSGVPDRFSGSKSGTSASLAITGLQAEDEADYYCQSYDSSLSGSYVVFGGGTKLTVL",IC50 (read off the curve),[2],~9 nM
"anti-PD-L1 antibody C4 (format not stated in the example) (antibody, V domains shown, detected with anti-human Fc-HRP in the avidity ELISA, so it carried an Fc there) VH: QVQLQQSGAEVKKPGSSVKVSCKASGGTFSSYAISWVRQAPGQGLEWMGRIIPILGIANYAQKFQGRVTITADKSTSTAYMELSSLRSEDTAVYYCARGGYGGNSLYAFDIWGQGTMVTVSS VL: QSVVTQPPSVSAAPGQKVTISCSGSSSNIGNNYVSWYQQLPGTAPKLLIYDNNERLSGIPDRFSGSKSGTSATLGISGLQTGDEADYYCGTWDSSLSVVVFGGGTKLTVL",EC50 (read off the curve),[3],~0.9 nM
same,EC50 (read off the curve),[4],~0.9 nM
"anti-PD-L1 antibody clone A1, Fab format (Fab, V domains shown, Human Fab from a phage display library) VH: QVQLQQSGAEVKKPGSSVKVSCKASGGTFSSYAISWVRQAPGQGLEWMGRIIPILGIANYAQKFQGRVTITADKSTSTAYMELSSLRSEDTAVYYCARGGSYGSLYAFDIWGQGTMVTVSS VL: QSVLTQPPSVSAAPGQRVSISCSGRSSNIASHDVFWYQQLPGTAPKIVMYETNKRPWGIPDRFSGSKSGTSATLDIAGLQTGDEADYYCGAWDSGLTGMLFGGGTKVTVL",IC50 (read off the curve),[5],~50 nM
"anti-PD-L1 antibody H12_GL, IgG4 format (antibody, V domains shown, IgG4) VH: QVQLVQSGAEVKKPGSSVKVSCKASGGTFSSYAISWVRQAPGQGLEWMGRIIPILGIANYAQKFQGRVTITADKSTSTAYMELSSLRSEDTAVYYCARSGHGYSYGAFDYWGQGTLVTVSS VL: QSVLTQPPSVSGAPGQRVTISCTGSSSNIGAGYDVHWYQQLPGTAPKLLIYGNSNRPSGVPDRFSGSKSGTSASLAITGLQAEDEADYYCQSYDSSLSGSYVVFGGGTKLTVL",IC50 (read off the curve),[2],~7 nM
"anti-PD-L1 antibody H12_GL, IgG1 format (antibody, V domains shown, IgG1) VH: QVQLVQSGAEVKKPGSSVKVSCKASGGTFSSYAISWVRQAPGQGLEWMGRIIPILGIANYAQKFQGRVTITADKSTSTAYMELSSLRSEDTAVYYCARSGHGYSYGAFDYWGQGTLVTVSS VL: QSVLTQPPSVSGAPGQRVTISCTGSSSNIGAGYDVHWYQQLPGTAPKLLIYGNSNRPSGVPDRFSGSKSGTSASLAITGLQAEDEADYYCQSYDSSLSGSYVVFGGGTKLTVL",IC50 (read off the curve),[2],~7 nM
"anti-PD-L1 antibody clone C2, Fab format (Fab, V domains shown, Human Fab from a phage display library) VH: QVQLQQSGAEVKKPGSSVKVSCKASGGTFSSYAISWVRQAPGQGLEWMGRIIPILGIANYAQKFQGRVTITADKSTSTAYMELSSLRSEDTAVYYCARGGSYGSLYAFDIWGQGTTVTVSS VL: SYELTQPPSVSVAPGKTTRITCGGDNIGRKSVHWYQQRPGQAPLLLVYDDGDRPSGIPDRFSGSNSGNTATLTISGTQAMDEADYYCQAWDSTVVFGGGTRLTVL",IC50 (read off the curve),[5],~40 nM

# Reference: patent US20170319690A1 (AGENCY FOR SCIENCE TECHNOLOGY AND RESEARCH, published 2017)
